For series [1], the target named is Saccharomyces cerevisiae ADAT3 (S. cerevisiae).
For series [2], the target named is ScADAT2 (TAD2);ScADAT3 K50A (Saccharomyces cerevisiae;Saccharomyces …, UniProt P47058;Q9URQ3 1-250;1-322, |K50A). Nature of the series: EMSA; 2 uM tRNA, varied enzyme:tRNA molar ratios; EMSA: 20 mM Tris-HCl pH 8.0, 1 mM DTT, 2 uM tRNA, on ice 60 min; 6% native PAGE, 40 mM Tris-HCl pH 9.0 running buffer. As to conditions: protein: recombinant;recombinant; tags: none (untagged in co-expression);N-terminal His6, cleaved (PreScission); copies: 1;1; label: none; tRNA cloverleaf. In general terms: A gel shift assay detects complexes by their altered migration in electrophoresis.

For series [3], the target named is ScADAT2 (TAD2);ScADAT3 (TAD3) WT (Saccharomyces cerevisiae;Saccharomyces …, UniProt P47058;Q9URQ3 1-250;1-322, |). The series is described as above. The conditions noted are these: protein: recombinant;recombinant; tags: none (untagged in co-expression);N-terminal His6, cleaved (PreScission); copies: 1;1; label: none; tRNA cloverleaf.
The target in series [4] is ScADAT2 (TAD2);ScADAT3 R75A/K76A (Saccharomyces cerevisiae;Saccharomyces …, UniProt P47058;Q9URQ3 1-250;1-322, |R75A;K76A). The description is as above. As to conditions: protein: recombinant;recombinant; tags: none (untagged in co-expression);N-terminal His6, cleaved (PreScission); copies: 1;1; label: none; tRNA cloverleaf.
Series [5] deals with ScADAT2 (TAD2);ScADAT3 K72A/R73A (Saccharomyces cerevisiae;Saccharomyces …, UniProt P47058;Q9URQ3 1-250;1-322, |K72A;R73A). The description is as above. As to conditions: protein: recombinant;recombinant; tags: none (untagged in co-expression);N-terminal His6, cleaved (PreScission); copies: 1;1; label: none; tRNA cloverleaf.
The target of series [6] is ScADAT2 (TAD2);ScADAT3 Del30-148 (Saccharomyces cerevisiae;Saccharomyces …, UniProt P47058;Q9URQ3 1-250;1-322, |del30-148). The series is described as above. The conditions noted are these: protein: recombinant;recombinant; tags: none (untagged in co-expression);N-terminal His6, cleaved (PreScission); copies: 1;1; label: none; tRNA cloverleaf.

Bounds are passed on as bounds.

Chain of ScADAT2 (TAD2);ScADAT3 R75A/K76A (P47058 whole entry, chain 1 of 2): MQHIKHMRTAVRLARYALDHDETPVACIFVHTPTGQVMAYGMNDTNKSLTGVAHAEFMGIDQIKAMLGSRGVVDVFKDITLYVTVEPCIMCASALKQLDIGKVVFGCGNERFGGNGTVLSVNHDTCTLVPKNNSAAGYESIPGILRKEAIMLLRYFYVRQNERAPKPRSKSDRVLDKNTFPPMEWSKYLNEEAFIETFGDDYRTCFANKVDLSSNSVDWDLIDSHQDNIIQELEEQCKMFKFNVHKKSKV
Chain of ScADAT2 (TAD2);ScADAT3 R75A/K76A (Q9URQ3 whole entry R75A/K76A, chain 2 of 2): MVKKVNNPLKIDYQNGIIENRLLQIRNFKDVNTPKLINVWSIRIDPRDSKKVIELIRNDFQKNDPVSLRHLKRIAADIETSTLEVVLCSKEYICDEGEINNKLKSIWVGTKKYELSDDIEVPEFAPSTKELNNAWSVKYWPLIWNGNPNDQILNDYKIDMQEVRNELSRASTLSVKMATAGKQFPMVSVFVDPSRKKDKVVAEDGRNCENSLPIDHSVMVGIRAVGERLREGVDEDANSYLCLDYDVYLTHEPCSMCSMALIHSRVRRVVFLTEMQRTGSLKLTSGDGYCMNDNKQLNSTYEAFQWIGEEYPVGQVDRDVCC
Chain of ScADAT2 (TAD2);ScADAT3 (TAD3) WT (P47058 whole entry, chain 1 of 2): as the sequence (P47058 whole entry, chain 1 of 2) above
Chain of ScADAT2 (TAD2);ScADAT3 (TAD3) WT (Q9URQ3 whole entry, chain 2 of 2): as the sequence (Q9URQ3 whole entry R75A/K76A, chain 2 of 2) above, with A75R, A76K counted along it
Chain of ScADAT2 (TAD2);ScADAT3 Del30-148 (P47058 whole entry, stated change not applied, chain 1 of 2): as the sequence (P47058 whole entry, chain 1 of 2) above
Chain of ScADAT2 (TAD2);ScADAT3 Del30-148 (Q9URQ3 other isoform, or with tags, fused parts or gaps |del30-148, chain 2 of 2): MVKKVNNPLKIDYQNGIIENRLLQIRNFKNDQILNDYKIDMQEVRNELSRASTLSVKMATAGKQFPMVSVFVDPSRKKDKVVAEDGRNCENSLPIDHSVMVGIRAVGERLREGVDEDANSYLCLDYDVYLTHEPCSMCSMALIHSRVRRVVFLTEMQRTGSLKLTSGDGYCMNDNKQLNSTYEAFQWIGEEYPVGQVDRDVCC
Chain of ScADAT2 (TAD2);ScADAT3 K50A (P47058 whole entry, chain 1 of 2): as the sequence (P47058 whole entry, chain 1 of 2) above
Chain of ScADAT2 (TAD2);ScADAT3 K50A (Q9URQ3 whole entry K50A, chain 2 of 2): as the sequence (Q9URQ3 whole entry R75A/K76A, chain 2 of 2) above, with K50A, A75R, A76K counted along it
Chain of ScADAT2 (TAD2);ScADAT3 K72A/R73A (P47058 whole entry, chain 1 of 2): as the sequence (P47058 whole entry, chain 1 of 2) above
Chain of ScADAT2 (TAD2);ScADAT3 K72A/R73A (Q9URQ3 whole entry K72A/R73A, chain 2 of 2): as the sequence (Q9URQ3 whole entry R75A/K76A, chain 2 of 2) above, with K72A, R73A, A75R, A76K counted along it

Take “ScADAT2-D124A/T125A/C126A/T127A (enzyme)”: the in vitro deamination of tRNA^Ala by the heterodimer (30 nM enzyme), coupled to cleavage by EcEndoV, against WT in series [1] was greater than 50 % activity.
In series [1], ScADAT2/F57A (enzyme) came in with an in vitro deamination of tRNA^Ala by the heterodimer (30 nM enzyme), coupled to cleavage by EcEndoV, against WT greater than 50 % activity.
The same measure, in the same setting: to ScADAT2/I89A (enzyme) belongs greater than 50 % activity; to ScADAT2/L49A (enzyme), greater than 50 % activity.
As to ScADAT2/L119A/V121A (enzyme), the in vitro deamination of tRNA^Ala by the heterodimer (30 nM enzyme), coupled to cleavage by EcEndoV, against WT in series [1] was greater than 50 % activity.
On to ScADAT2/Q97A (enzyme), for which, in series [1], the in vitro deamination of tRNA^Ala by the heterodimer (30 nM enzyme), coupled to cleavage by EcEndoV, against WT is greater than 50 % activity.
Take ScADAT2/S69A (enzyme): in series [1], the in vitro deamination of tRNA^Ala by the heterodimer (30 nM enzyme), coupled to cleavage by EcEndoV, against WT was greater than 50 % activity.
Molecule ScADAT2/S93A (enzyme) gave an in vitro deamination of tRNA^Ala by the heterodimer (30 nM enzyme), coupled to cleavage by EcEndoV, against WT in series [1] greater than 50 % activity.
Same read-out and setting: to ScADAT2/V52A (enzyme) belongs greater than 50 % activity.

B1: tRNAAla (structured_RNA)
RNA: GGGCGUGUGGCGUAGUCGGUAGCGCGCUCCCUUAGCAUGGGAGAGGUCUCCGGUUCGAUUCCGGACUCGUCCACCA
modifications: none (in vitro transcript)
Turning to B1, the binding result in series [2] is given as “no binding”; in series [3], “binds”; in series [4] it was “no binding”; in series [5], “no binding”; in series [6] it was “no binding”.

The record behind these values is article PMC7713142, “Crystal structure of the yeast heterodimeric ADAT2/3 deaminase”.
